From US20010052137A1, “Axin domain-like polypeptide inhibitors of glycogen synthase kinase 3 beta activity and activators of wnt signaling” (Trustees of the University of Pennsylvania, priority 2000, published 2001)

Key:
[1] = tested on: GSK-3 beta; experiment: Co-immunoprecipitation of GSK-3 beta with Myc-tagged Xaxin constructs in Xenopus oocytes; type: binding; conditions: Myc-tagged construct co-expressed with GSK-3 beta in Xenopus oocytes; anti-Myc IP, anti-GSK-3 beta blot
[2] = tested on: beta-catenin; experiment: beta-catenin protein accumulation in Xenopus oocytes (immunoblot); type: cell-based; conditions: construct mRNA expressed in Xenopus oocytes
Procedure: FIG. 2A is an image of an immunoblot of Xenopus cytoplasmic extracts obtained from Xenopus embryos in which beta-catenin was expressed, using an antibody which binds specifically with beta-catenin (described in McCrea et al., 1993, J. Cell. Biol. 123:477-84). The embryo corresponding to lane 2 was incubated in the presence of 20 millimolar LiCI. Extracts corresponding to lanes 3-5, 7, and 8 were obtained from embryos in which full-length (lane 8) Xaxin or the C-term (lane 3), GID1 (“GID”; lanes 4 and 7), or N-term (lane 5) fragments of Xaxin were expressed.
Although endogenous GSK-3 beta is not present at sufficient levels to detect using the tau assay, inhibition of GSK-3 beta is known to cause stabilization of cytoplasmic beta-catenin (Cadigan et al., 1997, Genes Dev. 11:3286-3305; Miller et al., 1996, Genes Develop. 10:2527-2539), and this serves as a widely used assay for downstream activation of wnt signaling. Inhibition of endogenous GSK-3 beta activity also causes stabilization of beta-catenin in Xenopus embryos and oocytes (Hedgepeth et al., 1997, Develop. Biol. 185:82-91; Yost et al., 1998, Cell 93:1031-1041; Yost et al., 1996, Genes Develop. 10:1443-1454). For this reason, levels of beta-catenin protein were assessed in Xenopus oocytes which had been injected either with full length Xaxin mRNA or with mRNA encoding one of the amino-terminal, GID, or carboxyl-terminal domains of Xaxin.

[3] = tested on: LEF-1 dependent transcription (wnt signaling); experiment: LEF-luciferase reporter of wnt signaling in 293T cells; type: cell-based; conditions: 293T cells
Procedure: LEF-1 (also designated tcf) is a DNA-binding protein that also binds with beta-catenin. The beta-catenin/LEF-1 complex is known to activate transcription of wnt target genes. A genetic construct was made which comprised this LEF-1-binding promoter operably linked with a luciferase gene, for use as a reporter of wnt signaling.
Single plasmids encoding individual GID fragments were transfected into 293T cells, together with the LEF-luciferase reporter, and luciferase activity was measured after 24 hours. GID fragments induced up to 100- to 250-fold activation of LEF-luciferase (normalized to activity from the mutated LEF-reporter control, which was activated less than 2-fold).

[4] = tested on: Xenopus embryos; experiment: Dorsal axis duplication / dorsalization in Xenopus embryos after mRNA injection; type: in vivo; conditions: 4 cell embryo
[5] = target: T1, FL Xaxin (Xenopus laevis, UniProt Q9YGY0); experiment: Yeast two hybrid assay, interaction with FL Xaxin; type: binding; conditions: beta-galactosidase filter assay in S. cerevisiae
T1 construct: expressed in transfected cells; host or cells: Saccharomyces cerevisiae
From the text: (§1) FL Xaxin was cloned in frame with the GAL4 DNA binding domain (BD) in plasmid pAS2-1 (Clontech) to yield BD plasmid. Expression of BD plasmid yielded a Xaxin-GAL4 fusion protein. FL Xaxin, deltaDIX Xaxin, and a fragment (designated “AID”) encoding amino acid residues 489-777 of Xaxin were cloned in frame with the GAL4 transcriptional activation domain (AD) in the vector pACT2 to yield AD plasmids. Yeast were transformed with BD and AD plasmids using previously described protocols (Clontech, Palo Alto, Calif.). Transformed colonies were selected and assayed for beta-galactosidase activity in order to detect interacting proteins. In addition, three Xenopus axin partial length cDNAs (designated Y2H 2, Y2H 6, Y2H 7; all in plasmid pACT2) isolated from a previous yeast two hybrid screen (Hedgepeth et al., 1999, Mech. Develop. 80:147-151) were analyzed. Purification of GID
(§2) Using the yeast two hybrid assay, the ability of axin to bind with itself, with other members of the wnt pathway, or with the G(alpha)q subunit of heterotrimeric G-proteins, was investigated. […]
(§3) Saccharomyces cerevisiae cells were transformed with the bait vector and with one of the target vectors. Interaction was assessed using a filter assay to detect beta-galactosidase activity, as described (Fields et al., 1989, Nature 340:245-247; Harper et al., 1993, Cell 75:805-816). […]

[6] = tested on: GSK-3 beta; experiment: Yeast two hybrid assay, interaction with GSK-3 beta; type: binding; conditions: beta-galactosidase filter assay in S. cerevisiae
From the text: as §1, §2, §3

[7] = tested on: disheveled; experiment: Yeast two hybrid assay, interaction with disheveled; type: binding; conditions: beta-galactosidase filter assay in S. cerevisiae
From the text: as §1, §2, §3

[8] = tested on: carboxyl-terminal fragment of Xenopus frizzled 3; experiment: Yeast two hybrid assay, interaction with frizzled 3 fragment; type: binding; conditions: beta-galactosidase filter assay in S. cerevisiae
From the text: as §1, §2, §3

[9] = target: T2, carboxyl-terminal fragment of Xenopus frizzled 7 (Xenopus laevis, UniProt Q9PUK8); experiment: Yeast two hybrid assay, interaction with frizzled 7 fragment; type: binding; conditions: beta-galactosidase filter assay in S. cerevisiae
T2 sequence (Q9PUK8 525-549 limits assumed): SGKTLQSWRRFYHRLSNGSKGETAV
From the text: as §1, §2, §3

[10] = target: T3, G(alpha)q subunit of heterotrimeric G-proteins (Homo sapiens, UniProt P50148); experiment: Yeast two hybrid assay, interaction with G(alpha)q; type: binding; conditions: beta-galactosidase filter assay in S. cerevisiae
T3 sequence (P50148 1-359): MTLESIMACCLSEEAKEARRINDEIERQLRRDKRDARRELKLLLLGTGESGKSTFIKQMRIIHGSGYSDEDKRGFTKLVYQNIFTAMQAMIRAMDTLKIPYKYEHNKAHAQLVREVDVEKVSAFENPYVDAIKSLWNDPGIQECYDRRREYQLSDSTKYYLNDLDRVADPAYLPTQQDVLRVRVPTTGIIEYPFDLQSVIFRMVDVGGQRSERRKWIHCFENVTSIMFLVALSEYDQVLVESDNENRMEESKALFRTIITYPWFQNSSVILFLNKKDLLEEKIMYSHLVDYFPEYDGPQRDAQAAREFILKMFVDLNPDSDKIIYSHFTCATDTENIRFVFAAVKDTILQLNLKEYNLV
From the text: as §1, §2, §3

[11] = target: T4, axin (Xenopus laevis, UniProt Q9YGY0); experiment: Co-immunoprecipitation of myc-tagged and HA-tagged axin in Xenopus embryos; type: binding
T4 construct: Full length (FL) Xaxin was assembled into plasmid CS2MT using restriction fragments of partial cDNA clones; expressed in transfected cells; host or cells: Xenopus embryos (fertilized eggs injected with mRNA, harvested at stage 8)

[12] = tested on: GSK-3 beta protein lacking amino-terminal or carboxyl-terminal residues; experiment: Binding of full length axin to truncated GSK-3 beta; conditions: GSK-3 beta lacking as many as 62 amino-terminal or 132 carboxyl-terminal residues

B1: full length Xaxin: full length Xenopus axin, amino acid residues 1-842 (SEQ ID NO: 8) (protein, listed as Xenopus laevis)
chain: MSVKGKGFPLDLGGSFTEDAPRPPVPGEEGELITTDQRPFSHTYYSLKNDGIKNETSTATPRRPDLDLGYEPEGSASPTPPYLKWAESLHSLLDDQDGIHLFRTFLQQENCADLLDFWFACSGFRKLEPNDSKVEKRLKLAKAIYKKYVLDSNGIVSRQIKPATKSFIKDCVLRQQIDPAMFDQAQMEIQSMMEDNTYPVFLKSDIYLEYTTIGGESPKNYSDQSSGSGTGKGPSGYLPTLNEDEEWRCDQGGEHERERECIPSSLFSQKLALDSSSHCAGSNRRLSDGREFRPGTWREPVNPYYVNTGYAGAPVTSANDSEQQSMSSDADTMSLTDSSVDGIPPYRLRKHYRREMQESANANGRGPLPHIPRTYHMPKDIHVDPEKFAAELISRLEGVLRDREAEQKLEERLKRVRAEEEGDDGDVSSGPSVISHKLPSGPPMHHFNSRYSETGCVGMQIRDAHEENPESILDEHVQRVMKTPGCQSPGTGRHSPKSRSPDGHLSKTLPGSLGTMQTGHGKHSSKSTAKVDSGNLHHHKHVYHHVHHHGGVKPKEQIDGESTQRVQTNFPWNVESHNYATKSRNYAESMGMAPNPMDSLAYSGKVSMLSKRNAKKADLGKSESASHEMPVVPEDSERHQKILQWIMEGEKEIIRHKKSNHSSSSAKKQPPTELARPLSIERPGAVHPWVSAQLRNVVQPSHPFIQDPTMPPNPAPNPLTQLVSKPGARLEEEEKKAAKMPQKQRLKPQKKNVSAPSQPCDNIVVAYYFCGEPIPYRTMVKGRVVTLGQFKELLTKKGNYRYYFKKVSDEFDCGVVFEEVREDDMILPIYEEKIIGQVEKID
binding with GSK-3 beta (co-immunoprecipitation) [1]: bound
accumulation of beta-catenin [2]: not observed
activation of wnt signaling (LEF-1-binding promoter luciferase reporter) [3]: not
effect on axial development ([4]; mRNA injected or expressed dorsally): caused ventralization
secondary / ectopic axis formation ([4]; mRNA injected or expressed ventrally, scored at tadpole stage): induced formation of ectopic cement glands
interaction with FL Xaxin (self-interaction) [5]: interacted strongly
interaction with GSK-3 beta [6]: interacted strongly
interaction with disheveled [7]: did not interact
interaction with carboxyl-terminal fragment of Xenopus frizzled 3 [8]: did not interact
interaction with carboxyl-terminal fragment of Xenopus frizzled 7 [9]: did not interact
interaction with G(alpha)q [10]: did not interact
axin self-interaction (co-immunoprecipitation) [11]: interacts with itself
binding with truncated GSK-3 beta [12]: able to bind
